Patent US20240277844A1

Target: anti-CD3 idiotype ScFv (CAR6) fused to the 28z-CAR-membrane-bound IL-15 construct, on cord blood-derived NK cells
Assay: cell-based or functional assay

Max Activity, CCL5 release (pg/ml), CBNK/CAR6 cells + Ramos/HiBiT: 6.9 pg/mL | Max Activity, FasL release (pg/ml), CBNK/CAR6 cells + Ramos/HiBiT: 16.4 pg/mL | Max Activity, Granzyme A release (pg/ml), CBNK/CAR6 cells + Ramos/HiBiT: 643 pg/mL | Max Activity, Granzyme B release (pg/ml), CBNK/CAR6 cells + Ramos/HiBiT: 239 pg/mL | Max Activity, IFNγ release (pg/ml), CBNK/CAR6 cells + Ramos/HiBiT: 45.6 pg/mL | Max Activity, TNFα release (pg/ml), CBNK/CAR6 cells + Ramos/HiBiT: 11.9 pg/mL
Substance: REGN1979 (bispecific antibody)
Max Activity, Cytotoxicity (%), CBNK/CAR6 cells + Ramos/HiBiT: 25.5%
